# Values of other authors as cited in patent US20240424090A1, “COMPOSITIONS AND METHODS FOR USE IN IMMUNOTHERAPY” (INSTITUT CURIE, priority 2021, published 2024).
# Columns and labels:
# FCGRIIA = biological target: T1, FCGRIIA (Homo sapiens, UniProt P12318)
# T1 sequence (P12318 34-317): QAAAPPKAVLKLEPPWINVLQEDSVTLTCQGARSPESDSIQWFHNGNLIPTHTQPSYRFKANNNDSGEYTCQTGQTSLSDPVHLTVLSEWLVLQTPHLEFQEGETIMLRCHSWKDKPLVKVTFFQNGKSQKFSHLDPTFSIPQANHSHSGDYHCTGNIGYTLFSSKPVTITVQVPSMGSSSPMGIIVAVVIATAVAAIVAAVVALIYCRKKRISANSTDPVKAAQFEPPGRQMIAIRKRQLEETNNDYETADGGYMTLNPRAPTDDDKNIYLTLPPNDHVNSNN
# FCGRIIIA = FCGRIIIA (Homo sapiens, UniProt P08637)
# FCGRIIIA, sequence (P08637 17-254): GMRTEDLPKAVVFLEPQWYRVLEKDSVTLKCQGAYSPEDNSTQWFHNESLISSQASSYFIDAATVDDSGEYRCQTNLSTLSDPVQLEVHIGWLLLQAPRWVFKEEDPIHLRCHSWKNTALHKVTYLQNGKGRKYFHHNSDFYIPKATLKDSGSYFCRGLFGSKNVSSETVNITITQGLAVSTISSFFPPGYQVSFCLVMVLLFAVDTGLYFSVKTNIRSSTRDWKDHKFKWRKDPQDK
substance,measurement,setting,value
Tremelimumab: IgG2 anti-CTLA-4 antibody,binding to FCGRIIA,FCGRIIA,binds well
same,binding to FCGRIIIA,FCGRIIIA,not
